Measurements from the supplement of paper PMC10567573.

B1: GLTSCR2 (parent)
chain: FQRRNMIEPRERAKFKRKYKVKLV
B2: INTS4 (parent)
chain: TIIEPAGESDNPLRFTSGLVVALD

Variants of: B1
Assay: protein stability index of a GFP-peptide fusion (GPS, HEK-293T) (PSI 1-6); higher = more stable
Conditions: c terminus: a fixed tail appended
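Also: lentivirally expressed fusions sorted by FACS into six bins by GFP to DsRed ratio, PSI derived from sequencing read proportions per bin multiplied by bin number.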

Protein stability index: each site, then its substitutions
V24: W 1.31, R 2.71, D 3.12, K 3.09, F 2.54, A 2.96, S 2.62, Q 2.62, M 2.25, N 2.49, Y 2.7, H 2.15, P 2.69, E 2.96, L 1.92, G 2.45, C 2.25, T 2.93, I 1.91
K20: A 3.25, H 2.62, S 2.74, F 2.52, E 3.17, G 2.22, D 2.09, N 2.19, Q 1.93, Y 1.65, I 2.07, C 1.93, W 2.04, R 2.1, T 2.34, L 2.08, P 1.95, M 2.14, V 1.99
K18: D 2.64, F 1.61, L 1.72, W 2.3, G 1.98, Y 1.71, I 2.45, R 2.32, P 1.92, Q 2.51, V 2.78, N 2.4, H 2.29, E 2.39, A 2.25, M 2.22, T 2.24, C 2.05, S 2.63
L23: V 2.13, D 3.1, T 2.25, R 3.21, C 2.73, S 2.61, A 2.72, Q 3.43, I 2.52, K 2.41, N 2.75, E 2.56, P 2.12, M 1.69, Y 2.46, F 1.71, G 3.17, H 2.31, W 2.15
Y19: N 2.94, R 3.5, E 3.15, T 2.37, C 2.65, Q 2.87, M 2.75, I 2.54, V 2.63, G 2.66, D 3.03, S 2.88, P 2.74, F 2.52, K 3.86, L 2.75, A 2.46, H 2.93, W 2.39
K22: R 2.38, I 1.27, A 1.93, Q 2.38, W 1.67, M 2.37, P 2.38, T 1.89, N 2.6, V 2.03, L 1.85, G 2.97, C 1.51, Y 2.08, H 1.72, F 1.73, D 2.27, E 2.41, S 1.94
K16: L 2.53, R 2.73, V 1.86, W 2.7, Q 1.87, Y 2.03, N 2.48, S 2.42, M 2.07, T 2.29, P 1.28
V21: F 2.55, P 2.33, A 2.67, G 2.52, E 2.46, I 2.35, K 3.29, S 2.5, M 2.34, T 3.07, L 2.28, W 2.44, Y 2.61, D 3.31, Q 2.81, N 2.87, C 2.97, H 2.79, R 2.86
R17: D 2.27, C 2.18, E 2.24, Y 1.65, K 2.79, P 2.46, M 2.94, I 2.32, S 2.77, Q 2.07, G 1.99, L 2.45, W 2.1, V 1.96, N 2.63, F 1.74, A 2.33, H 1.89, T 2.56

Variants of: B2
Assay: as above
Conditions: c terminus: a fixed tail appended

Protein stability index, by site and new letter:
S9: V 2.92, K 2.87, G 2.75, T 2.9, R 2.79, F 2.65, D 3.29, W 2.19, E 3.73, A 2.57, Y 2.48, M 3.16, Q 2.77, C 2.28, P 3.25, L 2.38, I 2.78, N 3.25, H 3.17
T1: M 1.68, S 3.41, P 3.06, C 2.38, F 1.83, Y 2.08, L 1.83, V 2.23, G 3.82, H 3.23, A 2.45, R 2.32, I 2.2, N 3.36, Q 2.96, W 2.23, D 3.21, E 2.68, K 2.68
A6: Y 2.19, W 1.78, Q 2.72, L 2.2, M 2.63, R 3.07, G 2.94, E 3.74, K 2.98, C 2.47, F 2.52, T 2.61, D 3.7, I 2.73, H 2.75, S 2.54, N 2.52, V 2.62, P 2.99
E4: H 2.55, G 2.25, T 2.34, Y 1.51, P 3.15, N 2.09, C 2.05, M 2.1, D 3.09, V 1.98, A 2.76, I 1.72, F 1.81, L 2.33, K 2.19, R 2.94, Q 2.84, S 2.89, W 1.56
I2: T 3.21, C 2.84, R 3.67, Y 2.32, A 3.71, F 3.8, G 3.51, Q 3.22, W 2.38, V 3.15, P 3.9, D 4.21, H 3.18, N 3.9, L 3.48, K 2.89, E 3.86, M 3.38, S 3.48
P5: V 2.54, Q 2.49, R 2.51, M 1.76, I 1.5, L 2.76, A 2.37, S 2.33, H 2.83, E 3.31, K 2.79, G 2.78, W 2.53, D 3.36, C 2.56, F 1.53, T 2.77, N 2.91, Y 1.93
E8: Y 1.99, T 2.61, V 2.66, W 1.5, S 3.08, I 2.02, C 2.2, G 2.32, K 1.9, L 2.37, A 2.23, H 2.23, N 2.23, M 2.54, P 2.15, F 2.19, D 2.88, R 3.15, Q 2.62
G7: H 2.73, R 3.54, V 2.76, P 3.04, L 2.67, T 3.08, C 2.56, F 2.78, W 2.26, S 2.9, Y 2.45, N 2.77, Q 3.33, I 2.84, E 3.82, D 3.74, K 2.94, M 2.36, A 3.83
I3: C 3.2, R 3.06, P 3.42, K 3.85, T 3.4, M 3.23, G 3.7, N 3.51, F 2.38, Y 3.29, E 4.4, D 4.07, Q 3.45, A 4.03, V 4.2, S 4.07, W 2.88, L 2.76, H 3.9
